Patent US20070122903A1, “AMNIOTIC FLUID DERIVED CELLS” (priority 2005, published 2007)

Test system: cell line AFCA007 Clone A (AF-I)
Assay: Differentiation of cells into multiple endocrine lineages (collagen type I/matrigel transwell culture with growth factors)
Type: cell-based, human
Settings: 14 days; for expression of HNF-3 beta: DMEM + 5% FBS
Method: Cells from the cell line AFCA007 Clone A (AF-I) at passage 8 were embedded in collagen type I (Becton Dickinson, CA) with 1% growth-factor reduced matrigel matrix (Becton Dickinson), and seeded into 6-well transwell insert at 5×10^5 cells per well. The bottom well was seeded with human aortic endothelial cells passage 6 (Cambrex. MD). Cells were cultured with DMEM medium supplemented with 5% FBS and growth factors, which includes Cyclopamine, bFGF, EGF, BMP4-7, Activin A, Exendin 4, FGF4, all-trans retinoic acid and γ-secretase inhibitors for 14 days. Cultures were fed every other day. […] Treatment of cells with BMPs at high concentration, 50 ng/ml, also up-regualted the GATA4 expression.

Row | Molecule | expression of HNF-3 beta | PDX-1 expression (50 ng/ml)
1 | Activin A: growth factor added to the differentiation medium (protein, UniProt P08476 311-426, looked up, Inhibin beta A chain, growth factor added to the differentiation medium) Inhibin beta A chain: GLECDGKVNICCKKQFFVSFKDIGWNDWIIAPSGYHANYCEGECPSHIAGTSGSSLSFHSTVINHYRMRGHSPFANLKSCCVPTKLRPMSMLYYDDGQNIIKKDIQNMIVEECGCS | up-regulated | –
2 | FGF4: growth factor added to the differentiation medium (protein, UniProt P08620 31-206, looked up) Fibroblast growth factor 4: APTAPNGTLEAELERRWESLVALSLARLPVAAQPKEAAVQSGAGDYLLGIKRLRRLYCNVGIGFHLQALPDGRIGGAHADTRDSLLELSPVERGVVSIFGVASRFFVAMSSKGKLYGSPFFTDECTFKEILLPNNYNAYESYKYPGMFIALSKNGKTKKGNRVSPTMKVTHFLPRL | – | up-regulation
3 | BMP4: bone morphogenic protein, growth factor added to the differentiation medium (protein, UniProt P12644 293-408, looked up) Bone morphogenetic protein 4: SPKHHSQRARKKNKNCRRHSLYVDFSDVGWNDWIVAPPGYQAFYCHGDCPFPLADHLNSTNHAIVQTLVNSVNSSIPKACCVPTELSAISMLYLDEYDKVVLKNYQEMVVEGCGCR | up-regulated | –
